T1: human CD73 on cells (UniProt P21589 27-549)
T1 chain: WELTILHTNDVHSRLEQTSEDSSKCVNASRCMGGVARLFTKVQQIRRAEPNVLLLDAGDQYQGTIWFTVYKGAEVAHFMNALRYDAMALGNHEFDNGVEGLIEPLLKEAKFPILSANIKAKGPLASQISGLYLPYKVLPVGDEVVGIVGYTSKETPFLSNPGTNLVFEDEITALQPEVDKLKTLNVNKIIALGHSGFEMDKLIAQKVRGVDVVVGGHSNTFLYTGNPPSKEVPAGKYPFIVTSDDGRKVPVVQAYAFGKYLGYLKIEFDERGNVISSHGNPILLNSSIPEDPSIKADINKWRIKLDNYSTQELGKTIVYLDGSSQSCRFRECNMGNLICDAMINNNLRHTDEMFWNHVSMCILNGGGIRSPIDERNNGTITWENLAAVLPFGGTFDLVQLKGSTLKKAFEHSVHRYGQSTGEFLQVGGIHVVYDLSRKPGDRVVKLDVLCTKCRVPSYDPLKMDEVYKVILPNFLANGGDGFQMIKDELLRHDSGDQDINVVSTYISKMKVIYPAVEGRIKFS


Target: T1, human CD73 on cells
Assay: FACS cell binding; Calu6 cells

Kd | Binder
0.188 mg/L | 11F11 (antibody, V domains shown) VH: QVQLVESGGGVVQPGRSLRLSCATSGFTFSNYGMHWVRQAPGKGLEWVAVILYDGSNKYYPDSVKGRFTISRDNSKNTLYLQMNSLRAEDTAVYYCARGGSSWYPDSFDIWGQGTMVTVSS VL: DIQMTQSPSSLSASVGDRVTITCRASQGISSWLAWYQQKPEKAPKSLIYAASSLQSGVPSRFSGSGSGTDFTLTISSLQPEDFATYYCQQYNSYPLTFGGGTKVEIKR
0.0964 mg/L | CD73.4-IgG2-C219S-IgG1.1f (antibody, N-terminal Gln 94% pyro-Q; 97% of heavy chains lack the C-terminal Lys) heavy: QVQLVESGGGVVQPGRSLRLSCAASGFTFSNYGMHWVRQAPGKGLEWVAVILYDGSNKYYPDSVKGRFTISRDNSKNTLYLQMNSLRAEDTAVYYCARGGSSWYPDSFDIWGQGTMVTVSSASTKGPSVFPLAPCSRSTSESTAALGCLVKDYFPEPVTVSWNSGALTSGVHTFPAVLQSSGLYSLSSVVTVPSSNFGTQTYTCNVDHKPSNTKVDKTVERKSCVECPPCPAPPVAGPSVFLFPPKPKDTLMISRTPEVTCVVVDVSHEDPEVKFNWYVDGVEVHNAKTKPREEQYNSTYRVVSVLTVLHQDWLNGKEYKCKVSNKALPSSIEKTISKAKGQPREPQVYTLPPSREEMTKNQVSLTCLVKGFYPSDIAVEWESNGQPENNYKTTPPVLDSDGSFFLYSKLTVDKSRWQQGNVFSCSVMHEALHNHYTQKSLSLSPG light: not shown
0.0826 mg/L | CD73.4-IgG2-C219S (antibody) heavy: QVQLVESGGGVVQPGRSLRLSCAASGFTFSNYGMHWVRQAPGKGLEWVAVILYDGSNKYYPDSVKGRFTISRDNSKNTLYLQMNSLRAEDTAVYYCARGGSSWYPDSFDIWGQGTMVTVSSASTKGPSVFPLAPCSRSTSESTAALGCLVKDYFPEPVTVSWNSGALTSGVHTFPAVLQSSGLYSLSSVVTVPSSNFGTQTYTCNVDHKPSNTKVDKTVERKSCVECPPCPAPPVAGPSVFLFPPKPKDTLMISRTPEVTCVVVDVSHEDPEVQFNWYVDGVEVHNAKTKPREEQFNSTFRVVSVLTVVHQDWLNGKEYKCKVSNKGLPAPIEKTISKTKGQPREPQVYTLPPSREEMTKNQVSLTCLVKGFYPSDIAVEWESNGQPENNYKTTPPMLDSDGSFFLYSKLTVDKSRWQQGNVFSCSVMHEALHNHYTQKSLSLSPG light: not shown
0.156 mg/L | CD73.10-IgG2-C219S-IgG1.1f (antibody) heavy: QVQLVESGGGVVQPGRSLRLSCAASGFTFSNYGMHWVRQAPGKGLEWVAVIWYDESNKYYPDSVKGRFTISRDNSKNTLYLQMNSLRAEDTAVYYCARGGSSWYPDSFDIWGQGTMVTVSSASTKGPSVFPLAPCSRSTSESTAALGCLVKDYFPEPVTVSWNSGALTSGVHTFPAVLQSSGLYSLSSVVTVPSSNFGTQTYTCNVDHKPSNTKVDKTVERKSCVECPPCPAPPVAGPSVFLFPPKPKDTLMISRTPEVTCVVVDVSHEDPEVKFNWYVDGVEVHNAKTKPREEQYNSTYRVVSVLTVLHQDWLNGKEYKCKVSNKALPSSIEKTISKAKGQPREPQVYTLPPSREEMTKNQVSLTCLVKGFYPSDIAVEWESNGQPENNYKTTPPVLDSDGSFFLYSKLTVDKSRWQQGNVFSCSVMHEALHNHYTQKSLSLSPG light: not shown
0.162 mg/L | CD73.10-IgG2-C219S (antibody) heavy: QVQLVESGGGVVQPGRSLRLSCAASGFTFSNYGMHWVRQAPGKGLEWVAVIWYDESNKYYPDSVKGRFTISRDNSKNTLYLQMNSLRAEDTAVYYCARGGSSWYPDSFDIWGQGTMVTVSSASTKGPSVFPLAPCSRSTSESTAALGCLVKDYFPEPVTVSWNSGALTSGVHTFPAVLQSSGLYSLSSVVTVPSSNFGTQTYTCNVDHKPSNTKVDKTVERKSCVECPPCPAPPVAGPSVFLFPPKPKDTLMISRTPEVTCVVVDVSHEDPEVQFNWYVDGVEVHNAKTKPREEQFNSTFRVVSVLTVVHQDWLNGKEYKCKVSNKGLPAPIEKTISKTKGQPREPQVYTLPPSREEMTKNQVSLTCLVKGFYPSDIAVEWESNGQPENNYKTTPPMLDSDGSFFLYSKLTVDKSRWQQGNVFSCSVMHEALHNHYTQKSLSLSPG light: not shown
